{"source": "patent US5607850A", "about": "“Enzyme from microbial source: phthalyl amidase” (Eli Lilly and Company, priority 1995, dated 1997)", "key": {"[1]": {"test": "Isoelectric focusing of phthalyl amidase", "format": "physicochemical", "protocol": "The molecular weight of the phthalyl amidase was determined to be 49,000 by electrospray mass spectrometry. The enzyme is monomeric with an isoelectric point estimated by isoelectric focusing to be pH 5.5."}, "[2]": {"test": "Optimum reaction temperature of phthalyl amidase", "format": "biochemical", "protocol": "Test reactions were carried out similar to Example 5 except that all incubations were performed in 50 mM potassium phosphate buffer at pH 8.2.Solutions of the substrate were pre-incubated for 5 minutes at temperatures between 2° and 60° C. The enzymatic reaction was initiated by the addition of phthalyl amidase and stopped by the addition of 1 ml methanol. Specific activity of the enzyme was determined by monitoring the hydrolysis of III by HPLC as in Example 5."}, "[3]": {"test": "Stability of phthalyl amidase: effect of ionic strength and pH", "format": "physicochemical", "protocol": "The stability of phthalyl amidase at pH values ranging from 6-9 was determined as described in Example 5 at 30° C. in both 20 and 200 mM potassium phosphate buffer. […] In 200 mM buffer, the enzyme retained at least 80% of its activity for 100 hours irrespective of the pH of the incubating medium."}, "[4]": {"test": "Effect of pH on phthalyl amidase activity", "format": "biochemical", "protocol": "The effect of pH on the reaction rate of the analytical scale purified enzyme was determined using phthalamido carbacephem (III) as substrate. [drawing 5]\nA typical reaction mixture consisted of 1 ml total volume and contained 0.1 mM III, 0.1 μM phthalyl amidase in 50 mM potassium phosphate buffer (pH 5.5-9.0) at 32° C. for 20 minutes. The reactions were stopped by the addition of 1 ml methanol. After removal of precipitate by centrifugation, an aliquot of the supernatant fraction (typically 30 μl) was monitored for the beta-lactam nucleus and phthalic acid by HPLC using a Zorbax C8 column (0.46×15 cm; MacMod Analytical Inc., Chadds Ford, Pa.). The two reaction products were eluted by a mobile phase constructed as continuous mixed gradients from (a) 1% ACN (acetonitrile)/0.2% TFA (trifluoroacetic acid) and (b) 80% ACN/0.2% TFA as follows: 1) 0% (b), 3min; 2) 0-50% (b), 0.5 min; 3) 50-100% (b), 3 min; 4) 100% (b), 2.5 min; 5) 100-1% (b), 0.1 min; and 6) 0% (b), 5 min. At a flow rate of 1.5 ml/min, retention times of the beta-lactam nucleus and phthalic acid, as measured at 254 nm, were 2.3 and 7.2 min, respectively."}, "[5]": {"test": "Temperature stability of phthalyl amidase", "format": "physicochemical", "conditions": "pH 8.2; for enzyme activity retained: 48 hours", "protocol": "The phthalyl amidase enzyme was also tested for stability at varying temperature. The enzyme was incubated at pH 8.2 in the temperature range of 4°-50° C. for 48 hours in 50 and 200 mM phosphate buffer. […] In 200 mM buffer, 80% of the enzyme activity was retained in temperatures up to 35° C. and 30% of the enzyme activity was retained after 48 hours incubation at 40° C."}, "[6]": {"test": "Phthalyl amidase specific activity with chromogenic substrate (II) during purification (Tables 2 and 3)", "format": "biochemical", "protocol": "The assay reaction mixture (1 ml) consisted of 0.3 μmol of the chromogenic substrate (II) and 0.001-0.5 μg of enzyme preparation in 50 mM potassium phosphate buffer, pH 8.0 (buffer A). The enzymatic reaction was conducted at 30° C. for 10 minutes and the appearance of product was monitored at 380 nm (or 430 nm). The amount of substrate hydrolyzed was calculated from a standard curve of the amine product.\nThe phthalyl amidase activity reported in Table 2 was determined using the chromogenic substrate as in Example 3. A typical reaction mixture in a total volume of 1 ml contained 0.2 mg of the chromogenic substrate and an aliquot of phthalyl amidase in buffer A. The enzymatic reaction was conducted at 30° C. for 10-15 min. Formation of the reaction product was monitored with a spectrophotometer at 430 nm (or 380 nm) and quantitated from a standard curve of the product.\nThe concentrated and diafiltered Super-Q mainstream was applied to a hydroxylapatite column (3.2×40 cm) equilibrated in buffer A. After washing the column with this buffer, phthalyl amidase was eluted using a linear gradient of 0-500 mM phosphate buffer, pH 8.0. Fractions were assayed according to the chromogenic substrate method (see Example 3) and the active fractions were pooled (1 L) and concentrated (400 ml)."}, "[7]": {"test": "Optimum salt concentration for phthalyl amidase", "format": "biochemical", "conditions": "for Specific Activity: pH 8.2, 32° C.", "protocol": "Test reactions were carried out similar to Example 6 except that buffer concentrations ranging from 10 to 200 mM at 32° C. were examined. All other conditions and analyses were the same."}}, "data": [{"molecule": "phthalyl amidase: specific enzyme which readily removes the phthalyl moiety from phthalyl-containing amides, from Xanthobacter agilis (protein) QAPSVHQHVAFTEEIGDLPDGSSYMIRVPENWNGVLIRDLDLVSGTSNSNAARYETMLKEGFAVAGTARHPLRQWQYDPAHEIENLNHVLDTFEENYGSPERVIQYGCSGGAHVSLAVAEDFSDRVDGSVALAAHTPVWIMNSFLDGWFSLQSLIGEYYVEAGHGPLSDLAITKLPNDGSSNSSGHGMEGDLPAAWRNAFTAANATPEGRARMALAFALGQWSPWLADNTPQPDLDDPEAIADSVYESAMRLAGSPGGEARIMFENAARGQQLSWNDDIDYADFWENSNPAMKSAVQELYDTAGLDLQSDIETVNSQPRIEASQYALDYWNTPGRNVIGDPEVPVLRLHMIGDYQIPYSLVQGYSDLISENNNDDLYRTAFVQSTGHCNFTAAESSAAIEVMMQRLDTGEWPSTEPDDLNAIAEASNTGTEARFMALDGWEIPEYNRTWKPE", "values": [{"measurement": "isoelectric point", "setting": "[1]", "result": "~5.5", "unit": "pH"}, {"measurement": "enzyme activity outside temperature range", "setting": "[2]; below 10° C. and above 50° C., pH 8.2", "result": "Little enzyme activity"}, {"measurement": "temperature of maximum reaction rate", "setting": "[2]; pH 8.2, 50 mM potassium phosphate", "result": 34, "unit": "°C"}, {"measurement": "Optimum ionic strength", "setting": "[3]", "result": "≥ 200", "unit": "mM"}, {"measurement": "ionic strength that enhances pH and temperature stability", "setting": "[3]", "result": "above 20 mM"}, {"measurement": "optimum stability pH", "setting": "[3]", "result": "8.0±0.4", "unit": "pH"}, {"measurement": "pH range of stability", "setting": "[3]", "result": "6-9 pH"}, {"measurement": "enzyme activity lost", "setting": "[3]; 20 mM potassium phosphate, within 2 hours, 30° C., any pH 6-9", "result": "all enzyme activity as lost"}, {"measurement": "enzyme activity retained", "setting": "[3]; 200 mM potassium phosphate, 100 hours, 30° C., pH 6-9", "result": "at least 80%"}, {"measurement": "Reactive pH range", "setting": "[4]", "result": "5.5 to 9.0", "unit": "pH"}, {"measurement": "optimum pH", "setting": "[4]", "result": "8.0±0.4", "unit": "pH"}, {"measurement": "Optimal pH range for enzyme activity", "setting": "[4]; 32° C., 50 mM potassium phosphate", "result": "≥ 7.8", "unit": "pH"}, {"measurement": "Specific Activity", "setting": "[4]; pH 7.0, 32° C.", "result": 125.4, "unit": "μmol/min/μmol enzyme"}, {"measurement": "Specific Activity", "setting": "[4]; pH 7.2, 32° C.", "result": 130.4, "unit": "μmol/min/μmol enzyme"}, {"measurement": "Specific Activity", "setting": "[4]; pH 7.4, 32° C.", "result": 155.2, "unit": "μmol/min/μmol enzyme"}, {"measurement": "Specific Activity", "setting": "[4]; pH 7.6, 32° C.", "result": 172.5, "unit": "μmol/min/μmol enzyme"}, {"measurement": "Specific Activity", "setting": "[4]; pH 7.8, 32° C.", "result": 184.2, "unit": "μmol/min/μmol enzyme"}, {"measurement": "Specific Activity", "setting": "[4]; pH 8.0, 32° C.", "result": 195.3, "unit": "μmol/min/μmol enzyme"}, {"measurement": "Specific Activity", "setting": "[4]; pH 8.2, 32° C.", "result": 201.2, "unit": "μmol/min/μmol enzyme"}, {"measurement": "Specific Activity", "setting": "[4]; pH 8.4, 32° C.", "result": 208.0, "unit": "μmol/min/μmol enzyme"}, {"measurement": "Specific Activity", "setting": "[4]; pH 8.6, 32° C.", "result": 181.7, "unit": "μmol/min/μmol enzyme"}, {"measurement": "Specific Activity", "setting": "[4]; pH 8.8, 32° C.", "result": 185.1, "unit": "μmol/min/μmol enzyme"}, {"measurement": "Specific Activity", "setting": "[4]; pH 9.0, 32° C.", "result": 33.1, "unit": "μmol/min/μmol enzyme"}, {"measurement": "enzyme activity lost", "setting": "[5]; 50 mM phosphate, above 40° C., within 48 hours", "result": "all enzyme activity was lost"}, {"measurement": "enzyme activity retained", "setting": "[5]; 50 mM phosphate, below 25° C.", "result": 90, "unit": "%"}, {"measurement": "enzyme activity retained", "setting": "[5]; 200 mM phosphate, 40° C.", "result": 30, "unit": "%"}, {"measurement": "Spec. Act.", "setting": "[6]; Table 2, Ammonium Sulfate: 67-97% cut", "result": 1.547, "unit": "Units/mg"}, {"measurement": "Spec. Act.", "setting": "[6]; Table 2, Crude Extract", "result": 0.063, "unit": "Units/mg"}, {"measurement": "Spec. Act.", "setting": "[6]; Table 2, Hydroxylapatite", "result": 5.52, "unit": "Units/mg"}, {"measurement": "Spec. Act.", "setting": "[6]; Table 2, Mono P", "result": 7.2, "unit": "Units/mg"}, {"measurement": "Spec. Act.", "setting": "[6]; Table 2, Phenyl-Sepharose", "result": 2.505, "unit": "Units/mg"}, {"measurement": "Spec. Act.", "setting": "[6]; Table 2, Q Sepharose", "result": 1.214, "unit": "Units/mg"}, {"measurement": "Spec. Act.", "setting": "[6]; Table 3 (preparative), Crude Extract", "result": 0.8, "unit": "Units/mg"}, {"measurement": "Spec. Act.", "setting": "[6]; Table 3 (preparative), Hydroxylapatite", "result": 9.0, "unit": "Units/mg"}, {"measurement": "Spec. Act.", "setting": "[6]; Table 3 (preparative), Super-Q", "result": 3.0, "unit": "Units/mg"}, {"measurement": "effect of high salt concentration on specific activity", "setting": "[7]; 10 to 200 mM buffer", "result": "markedly improved the specific activity"}, {"measurement": "Specific Activity", "setting": "[7]; K Phosphate 10 mM", "result": 148, "unit": "μmol/min/μmol enzyme"}, {"measurement": "Specific Activity", "setting": "[7]; K Phosphate 50 mM", "result": 300, "unit": "μmol/min/μmol enzyme"}, {"measurement": "Specific Activity", "setting": "[7]; K Phosphate 100 mM", "result": 350, "unit": "μmol/min/μmol enzyme"}, {"measurement": "Specific Activity", "setting": "[7]; K Phosphate 200 mM", "result": 360, "unit": "μmol/min/μmol enzyme"}, {"measurement": "Specific Activity", "setting": "[7]; NH4 Acetate 10 mM", "result": 25, "unit": "μmol/min/μmol enzyme"}, {"measurement": "Specific Activity", "setting": "[7]; NH4 Acetate 50 mM", "result": 50, "unit": "μmol/min/μmol enzyme"}, {"measurement": "Specific Activity", "setting": "[7]; NH4 Acetate 100 mM", "result": 75, "unit": "μmol/min/μmol enzyme"}, {"measurement": "Specific Activity", "setting": "[7]; NH4 Acetate 200 mM", "result": 100, "unit": "μmol/min/μmol enzyme"}, {"measurement": "Specific Activity", "setting": "[7]; Tris-HCl 10 mM", "result": 73, "unit": "μmol/min/μmol enzyme"}, {"measurement": "Specific Activity", "setting": "[7]; Tris-HCl 50 mM", "result": 230, "unit": "μmol/min/μmol enzyme"}, {"measurement": "Specific Activity", "setting": "[7]; Tris-HCl 100 mM", "result": 275, "unit": "μmol/min/μmol enzyme"}, {"measurement": "Specific Activity", "setting": "[7]; Tris-HCl 200 mM", "result": 300, "unit": "μmol/min/μmol enzyme"}]}]}
